B1: ASCL3 WT (dsDNA)
DNA 1: TCGAAAAATAAAATAAAATAAAACAT
DNA 2: ATGTTTTATTTTATTTTATTTTTCGA
B2: HBB rs34598529 A-28C (dsDNA)
DNA 1: CAGGGCTGGGCATACAAGTCAGGGCA
DNA 2: TGCCCTGACTTGTATGCCCAGCCCTG
B3: HBB rs281864525 A-25C (dsDNA)
DNA 1: CAGGGCTGGGCATAAACGTCAGGGCA
DNA 2: TGCCCTGACGTTTATGCCCAGCCCTG
B4: HBB rs63750953 del -25AA (dsDNA)
DNA 1: CCAGGGCTGGGCATAAGTCAGGGCAG
DNA 2: CTGCCCTGACTTATGCCCAGCCCTGG
B5: HBD WT (dsDNA)
DNA 1: ACAGGACCAGCATAAAAGGCAGGGCA
DNA 2: TGCCCTGCCTTTTATGCTGGTCCTGT
B6: HBD rs34166473 T-30C (dsDNA)
DNA 1: ACAGGACCAGCACAAAAGGCAGGGCA
DNA 2: TGCCCTGCCTTTTGTGCTGGTCCTGT
B7: HBB rs33980857 T-29G (dsDNA)
DNA 1: CAGGGCTGGGCAGAAAAGTCAGGGCA
DNA 2: TGCCCTGACTTTTCTGCCCAGCCCTG
B8: HBB WT (dsDNA)
DNA 1: CAGGGCTGGGCATAAAAGTCAGGGCA
DNA 2: TGCCCTGACTTTTATGCCCAGCCCTG
B9: HBB rs33980857 T-29A (dsDNA)
DNA 1: CAGGGCTGGGCAAAAAAGTCAGGGCA
DNA 2: TGCCCTGACTTTTTTGCCCAGCCCTG
B10: HBB rs33931746 A-27T (dsDNA)
DNA 1: CAGGGCTGGGCATATAAGTCAGGGCA
DNA 2: TGCCCTGACTTATATGCCCAGCCCTG
B11: HBB rs34500389 C-32T (dsDNA)
DNA 1: CAGGGCTGGGTATAAAAGTCAGGGCA
DNA 2: TGCCCTGACTTTTATACCCAGCCCTG
B12: HBB rs34598529 A-28G (row 2) (dsDNA)
DNA 1: CAGGGCTGGGCATAGAAGTCAGGGCA
DNA 2: TGCCCTGACTTCTATGCCCAGCCCTG
B13: HBB rs33980857 T-29C (dsDNA)
DNA 1: CAGGGCTGGGCACAAAAGTCAGGGCA
DNA 2: TGCCCTGACTTTTGTGCCCAGCCCTG
B14: HBD rs35518301 A-31G (dsDNA)
DNA 1: ACAGGACCAGCGTAAAAGGCAGGGCA
DNA 2: TGCCCTGCCTTTTACGCTGGTCCTGT
B15: HBB rs34598529 A-28G (row 10) (dsDNA)
DNA 1: CAGGGCTGGGCATGAAAGTCAGGGCA
DNA 2: TGCCCTGACTTTCATGCCCAGCCCTG

Target: T1, TBP (TATA-binding protein) (Homo sapiens, UniProt P20226 1-339)
Assay: EMSA; association kinetics, 0.3 nM TBP; Table S2 in vitro -ln(KD) 15.05 disagrees; EMSA association kinetics, 0.3 nM TBP, four ODN concentrations; buffer, salt, pH and temperature not in the material
Settings: protein: recombinant; label: 32P both strands; blunt

T1 sequence (P20226 whole entry): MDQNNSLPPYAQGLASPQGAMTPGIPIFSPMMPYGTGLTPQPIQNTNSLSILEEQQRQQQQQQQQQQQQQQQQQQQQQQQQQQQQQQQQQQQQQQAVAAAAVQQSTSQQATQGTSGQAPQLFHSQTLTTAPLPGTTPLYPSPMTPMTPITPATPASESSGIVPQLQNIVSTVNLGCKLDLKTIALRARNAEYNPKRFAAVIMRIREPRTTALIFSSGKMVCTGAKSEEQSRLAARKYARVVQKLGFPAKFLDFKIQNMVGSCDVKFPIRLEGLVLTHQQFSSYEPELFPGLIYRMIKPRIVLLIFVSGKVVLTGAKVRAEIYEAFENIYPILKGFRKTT

For B1, the Kd was 12 nM.

Target: T1, TBP (TATA-binding protein)
Assay: EMSA; EMSA association kinetics, 0.3 nM TBP, four ODN concentrations; buffer, salt, pH and temperature not in the material
Settings: protein: recombinant; label: 32P both strands; blunt

Going from B2 to B3, the Kd falls from 499 nM to 150 nM (3.3-fold). The second binds more tightly here.

First: B4
Second: B5
The Kd of the first is 2.1-fold higher: 150 nM for the first, 70.3 nM for the second. The second binds more tightly here.

Going from B6 to B7, the Kd falls from 170 nM to 110 nM (1.5-fold).

First: B8
Second: B9
The Kd of the first is 2.2-fold lower: 50.1 nM for the first, 110 nM for the second. The first binds more tightly here.

Compared with B10, B11 is 1.9-fold lower in Kd: 59.9 nM for the first, 31.9 nM for the second.

Compared with B12, B13 is 4-fold lower in Kd: 557 nM for the first, 140 nM for the second.

Compared with B14, B15 is 5-fold higher in Kd: 99.8 nM for the first, 499 nM for the second.

Target: TBP (TATA-binding protein) (Homo sapiens) (UniProt P20226)
Assay: EMSA
Settings: EMSA association kinetics, 0.3 nM TBP, four ODN concentrations; buffer, salt, pH and temperature not in the material

TBP (TATA-binding protein) (Homo sapiens), sequence (P20226 whole entry): as above

Molecule “TCGAAAAATAAAACAAAATAAAACAT (double strand) [ASCL3 rs1049743008 T-45c]” has a Kd of 17 nM.

Reference: PMC9603081, “Transcription Factors as Important Regulators of Changes in Behavior through Domestication of Gray Rats: Quantitative Data from RNA Sequencing”
